# Measurements taken from US20100129347A1, “HERPES VIRUS INFECTION INHIBITOR, METHOD FOR INHIBITING INFECTION WITH HERPES VIRUS, AND USE THEREOF” (Osaka University, priority 2007, published 2010).
# B1: control Ig-fused protein: Ig-fused protein without PILR used as control; purified human CD200-Ig fusion protein (protein)
# chain: QVQVVTQDEREQLYTPASLKCSLQNAQEALIVTWQKKKAVSPENMVTFSENHGVVIQPAYKDKINITQLGLQNSTITFWNITLEDEGCYMCLFNTFGFGKISGTACLTVYVQPIVSLHYKFSEDHLNITCSATARPAPMVFWKVPRSGIENSTVTLSHPNGTTSVTSILHIKDPKNQVGKEVICQVLHLGTVTDFKQTVNKG
# modifications: left off: a dimerising Fc or GST
# Tested on: HSV-1
# Test: HSV-1-GFP infection of CHO-K1 cells transfected with human PILR, ratio of infected cells by flow cytometry
# Assay type: cell-based
# Conditions: various concentrations, FIG. 3
# Experimental: CHO-K1 cells were transiently transfected in a 10% FCS-containing F-12 culture medium using Lipofectamine 2000 (produced by Invitrogen) or GeneJuice (produced by Novagen). 1 day after the transfection, the 10% FCS-containing F-12 culture medium was replaced with a 1% FCS-containing F-12 culture medium. 2 days after the transfection, the transfectant was mixed with HSV-GFP and centrifuged at 32° C. at 2500 rpm for 2 hours. Thus, the transfectant was infected with HSV-GFP.
# Human PILR was transiently transfected to the CHO-K1 cells by using pMx-IRES-DsRed expression vector, and the CHO-K1 cells were caused to be infected with HSV-1 by using HSV-1-GFP in the presence of anti-human PILR mAb with various concentrations or control mAb. The ratio of HSV-1-infected cells was analyzed by flow cytometry.
# The CHO-K1 cells to which PILR had been transfected were caused to be infected with HSV-1 in the presence of PILR-Ig with various concentrations or Ig-fused protein without PILR that was a control. The ratio of the infected cells was analyzed by flow cytometry. Since PILR-Ig directly binds to gB of HSV-1, it is considered that there is a possibility that PILR-Ig blocks interaction between HSV-1 and PILR on the surface of a cell.
molecule,measurement,value
B1,blocking of HSV-1 infection of PILR-transfected CHO-K1 cells,not blocked
